Test results published in paper PMC3829167, “Directed Evolution of an Angiopoietin-2 Ligand Trap by Somatic Hypermutation and Cell Surface Display*” (The Journal of Biological Chemistry, 2013).
Residue numbers refer to the chain shown, from its start. Names may count otherwise.

B1: soluble evolved (R3) Tie2 ectodomain (1-442)-Fc fusion protein (Fc fusion, human, UniProt Q02763 23-442, looked up)
chain: AMDLILINSLPLVSDAETSLTCIASGWRPHEPITIGRDFEALMNQHQDPLEVTQDVTREWAKKVVWKREKASKINGAYFCEGRVRGEAIRIRTMKMRQQASFLPATLTMTVDKGDNVNISFKKVLIKEEDAVIYKNGSIIHSVPEVPDILEVHLPHAQPQDAGVYSARYIGGNLFTSAFTRLIVRRCEAQKWGPECNHLCTACMNNGVCHEDTGECICPPGFMGRTCEKACELHTFGRTCKERCSGQEGCKSYVFCLPDPYGCSCATGWKGLQCNEACHPGFYGPDCKLRCSCNNGEMCDRFQGCLCSPGWQGLQCEREGIQRMTPKIVDLPDHIEVNSGKFNPICKASGWPLPTNEEMTLVKPDGTVLHPKDFNHTDHFSVAIFTIHRILPPDSGVWVCSVNTVAGMVEKPFNISVK
notes: signal peptide in the construct; human Tie2 ectodomain, residues 1-442, with F161I and the deletion of Arg-167/His-168 introduced by site-directed mutagenesis; The changes were found by directed evolution and put into m3 by site-directed mutagenesis; also called evolved ectodomain; R3 ectodomain; source: HEK293 cells, transfected, secreted, purified (nickel-nitrilotriacetic acid chromatography); …
B2: soluble Tie2 ectodomain (1-442)-Fc fusion protein with the double Arg-167/His-168 deletion (Fc fusion, human, UniProt Q02763 23-442, looked up)
chain: B1 chain with I139F
notes: signal peptide in the construct; human Tie2 ectodomain, residues 1-442, Arg-167 and His-168 deleted; also called ΔRH; ΔArg-167/His-168; source: HEK293 cells, transfected, secreted, purified (nickel-nitrilotriacetic acid chromatography); not shown: Fc (human), C-terminal, kept
B3: soluble Tie2 ectodomain (1-442)-Fc fusion protein with F161I substitution (Fc fusion, human, UniProt Q02763 23-442, looked up)
chain: AMDLILINSLPLVSDAETSLTCIASGWRPHEPITIGRDFEALMNQHQDPLEVTQDVTREWAKKVVWKREKASKINGAYFCEGRVRGEAIRIRTMKMRQQASFLPATLTMTVDKGDNVNISFKKVLIKEEDAVIYKNGSIIHSVPRHEVPDILEVHLPHAQPQDAGVYSARYIGGNLFTSAFTRLIVRRCEAQKWGPECNHLCTACMNNGVCHEDTGECICPPGFMGRTCEKACELHTFGRTCKERCSGQEGCKSYVFCLPDPYGCSCATGWKGLQCNEACHPGFYGPDCKLRCSCNNGEMCDRFQGCLCSPGWQGLQCEREGIQRMTPKIVDLPDHIEVNSGKFNPICKASGWPLPTNEEMTLVKPDGTVLHPKDFNHTDHFSVAIFTIHRILPPDSGVWVCSVNTVAGMVEKPFNISVK
notes: signal peptide in the construct; human Tie2 ectodomain, residues 1-442, F161I; also called F/I; F161I ectodomain; source: HEK293 cells, transfected, secreted, purified (nickel-nitrilotriacetic acid chromatography); not shown: Fc (human), C-terminal, kept

How the values were obtained:
human angiopoietin 1 = molecular target: T1, human angiopoietin 1 (human, UniProt Q15389 16-498); test: ELISA; 5 μg/ml Ang1 or Ang2 immobilised in 96-well plates; blocked with TBS, 1 mg/ml BSA, 0.1% Triton-X 100; ectodomain-Fc fusion protein bound for 1 h at different concentrations, detected with anti-Tie2 ectodomain antibodies; saturation binding curves fitted by nonlinear regression; conditions: both partners purified
T1 construct: human angiopoietin 1 (Ang1), recombinant protein from R&D Systems; in the other experiments it was detected with anti-Ang1 or immobilised; also called Ang1; source: bought: R&D Systems
T1 sequence (looked up): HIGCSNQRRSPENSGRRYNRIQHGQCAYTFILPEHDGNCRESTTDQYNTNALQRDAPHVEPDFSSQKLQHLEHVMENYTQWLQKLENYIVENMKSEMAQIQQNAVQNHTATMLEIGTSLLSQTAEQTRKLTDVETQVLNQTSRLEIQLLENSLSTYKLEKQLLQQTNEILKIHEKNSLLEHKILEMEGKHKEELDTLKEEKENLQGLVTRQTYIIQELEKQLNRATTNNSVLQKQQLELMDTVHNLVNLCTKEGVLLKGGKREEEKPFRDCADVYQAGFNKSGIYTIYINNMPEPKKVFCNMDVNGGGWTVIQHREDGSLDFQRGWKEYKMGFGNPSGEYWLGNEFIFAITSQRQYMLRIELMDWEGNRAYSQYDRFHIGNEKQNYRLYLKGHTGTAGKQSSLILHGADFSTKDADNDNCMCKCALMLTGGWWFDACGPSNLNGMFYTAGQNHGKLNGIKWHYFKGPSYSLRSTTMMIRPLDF

human angiopoietin 2 = molecular target: T2, human angiopoietin 2 (human, UniProt O15123 19-496); test: as above; conditions: both partners purified
T2 construct: human angiopoietin 2 (Ang2), recombinant protein from R&D Systems; also called Ang2; source: bought: R&D Systems
T2 sequence (looked up): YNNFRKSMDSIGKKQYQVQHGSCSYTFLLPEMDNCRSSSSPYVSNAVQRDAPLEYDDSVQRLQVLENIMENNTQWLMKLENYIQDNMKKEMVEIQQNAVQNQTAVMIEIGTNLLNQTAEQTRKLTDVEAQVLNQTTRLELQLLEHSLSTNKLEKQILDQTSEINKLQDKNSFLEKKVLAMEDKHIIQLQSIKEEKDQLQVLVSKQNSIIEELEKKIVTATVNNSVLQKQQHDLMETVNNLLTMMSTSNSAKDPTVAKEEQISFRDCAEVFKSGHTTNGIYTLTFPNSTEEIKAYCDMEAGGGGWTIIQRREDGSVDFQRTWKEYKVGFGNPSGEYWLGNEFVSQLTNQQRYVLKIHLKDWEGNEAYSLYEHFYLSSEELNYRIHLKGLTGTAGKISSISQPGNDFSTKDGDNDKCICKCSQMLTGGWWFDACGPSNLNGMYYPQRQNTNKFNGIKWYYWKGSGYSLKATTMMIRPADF

Binder	Max binding (% of WT) (human angiopoietin 1)	Max binding (% of WT) (human angiopoietin 2)
B1	3 % of WT	59.4 % of WT
B2	0.29 % of WT	0.58 % of WT
B3	97.8 % of WT	90.5 % of WT
